B1: 26S proteasome non-ATPase regulatory subunit 9 (Homo sapiens), O00233 (parent)
chain: MSDEEARQSGGSSQAGVVTVSDVQELMRRKEEIEAQIKANYDVLESQKGIGMNEPLVDCEGYPRSDVDLYQVRTARHNIICLQNDHKAVMKQVEEALHQLHARDKEKQARDMAEAHKEAMSRKLGQSESQGPPRAFAKVNSISPGSPASIAGLQVDDEIVEFGSVNTQNFQSLHNIGSVVQHSEGKPLNVTVIRRGEKHQLRLVPTRWAGKGLLGCNIIPLQR

How the values were obtained:
csh1_human CSH1, P0DML2 [1] = variants of: B1; conditions: with csh1_human CSH1, P0DML2
HNRNPA1, P09651-2 [2] = variants of: B1; conditions: with HNRNPA1, P09651-2
HNRNPA1, P09651-2 [3] = variants of: B1; conditions: with HNRNPA1, P09651-2; remark: listed apart in the source
csh1_human CSH1, P0DML2 [4] = variants of: B1; conditions: with csh1_human CSH1, P0DML2; remark: listed apart in the source
rs14_human RPS14, P62263 = variants of: B1; conditions: with rs14_human RPS14, P62263
IL6R, P08887-2 = variants of: B1; conditions: with IL6R
Sequence of IL6R, P08887-2 (P08887 other isoform, or with tags, fused parts or gaps): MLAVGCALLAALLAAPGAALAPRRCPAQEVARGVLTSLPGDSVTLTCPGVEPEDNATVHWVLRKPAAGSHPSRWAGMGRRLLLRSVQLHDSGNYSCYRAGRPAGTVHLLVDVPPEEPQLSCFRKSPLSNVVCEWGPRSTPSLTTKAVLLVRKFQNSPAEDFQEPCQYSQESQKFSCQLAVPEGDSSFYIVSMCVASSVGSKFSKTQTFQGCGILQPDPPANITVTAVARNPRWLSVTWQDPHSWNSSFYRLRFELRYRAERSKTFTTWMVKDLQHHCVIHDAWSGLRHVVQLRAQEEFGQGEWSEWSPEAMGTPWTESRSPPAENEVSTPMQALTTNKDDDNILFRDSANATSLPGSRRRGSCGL

HNRNPA1, P09651-2 [5] = variants of: B1; conditions: with HNRNPA1, P09651-2; remark: listed apart in the source

Variant	effect of a mutation on the interaction (csh1_human CSH1, P0DML2 [1])	effect of a mutation on the interaction (HNRNPA1, P09651-2 [2])	effect of a mutation on the interaction (HNRNPA1, P09651-2 [3])	effect of a mutation on the interaction (csh1_human CSH1, P0DML2 [4])	effect of a mutation on the interaction (rs14_human RPS14, P62263)	effect of a mutation on the interaction (IL6R, P08887-2)	effect of a mutation on the interaction (HNRNPA1, P09651-2 [5])
MSDEEARQSGGSSQAGVVTVSDVQELMRRKEEIEAQIKANYDVLESQKGIGMNEPLVDCEGYPRSDVDLYQVRTARHNIICLQNDHKAVMKQVEEALHQLHARDKEKQARDMAEAHKEAMSRKLGQSESQGPPRAFAKVNSISPGSPASIAGLQVDDEIVEFGSVNTQNFQSGHNIGSVVQHSEGKPLNVTVIRRGEKHQLRLVPTRWAGKGLLGCNIIPLQR [L173G]			with no effect	with no effect	with no effect	with no effect	
MSDEEARQSGGSSQAGVVTVSDVQELMRRKEEIEAQIKANYDVLESQKGIGMNEPLVDCEGYPRSDVDLYQVRTARHNIICLQNDHKAVMKQVEEALHQLHARDKEKQARDMAEAHKEAMSRKGGGSGSQGPPRAFAKVNSISPGSPASIAGLQVDDEIVEFGSVNTQNFQSLHNIGSVVQHSEGKPLNVTVIRRGEKHQLRLVPTRWAGKGLLGCNIIPLQR [L124G;Q126G;E128G]			disrupting interaction strength	disrupting interaction strength	disrupting interaction strength	disrupting interaction strength	decreasing interaction strength

The next lines start with the values.

effect of a mutation on the interaction (csh1_human CSH1, P0DML2 [1])	effect of a mutation on the interaction (HNRNPA1, P09651-2 [2])	effect of a mutation on the interaction (HNRNPA1, P09651-2 [3])	effect of a mutation on the interaction (csh1_human CSH1, P0DML2 [4])	effect of a mutation on the interaction (rs14_human RPS14, P62263)	effect of a mutation on the interaction (IL6R, P08887-2)	effect of a mutation on the interaction (HNRNPA1, P09651-2 [5])	Variant
decreasing interaction strength	decreasing interaction strength	disrupting interaction strength	disrupting interaction strength	disrupting interaction strength	disrupting interaction strength		MSDEEARQSGGSSQAGVVTVSDVQELMRRKEEIEAQIKANYDVLESQKGIGMNEPLVDCEGYPRSDVDLYQVRTARHNIICLQNDHKAVMKQVEEALHQLHARDKEKQARDMAEAHKEAMSRKLGQSESQGPPRAFAKVNSISPGSPASIAGGQVDDEIVEFGSVNTQNFQSLHNIGSVVQHSEGKPLNVTVIRRGEKHQLRLVPTRWAGKGLLGCNIIPLQR [L153G]
decreasing interaction strength	decreasing interaction strength	disrupting interaction strength	disrupting interaction strength	decreasing interaction strength	disrupting interaction strength		MSDEEARQSGGSSQAGVVTVSDVQELMRRKEEIEAQIKANYDVLESQKGIGMNEPLVDCEGYPRSDVDLYQVRTARHNIICLQNDHKAVMKQVEEALHQLHARDKEKQARDMAEAHKEAMSRKLGQSESQGPPRAFAKVNSISPGSPASIAGLQVDDEIVEGGSVNTQNFQSLHNIGSVVQHSEGKPLNVTVIRRGEKHQLRLVPTRWAGKGLLGCNIIPLQR [F162G]
		disrupting interaction strength	decreasing interaction strength	disrupting interaction strength	disrupting interaction strength	decreasing interaction strength	MSDEEARQSGGSSQAGVVTVSDVQELMRRKEEIEAQIKANYDVLESQKGIGMNEPLVDCEGYPRSDVDLYQVRTARHNIICLQNDHKAVMKQVEEALHQLHARDKEKQARDMAEAHKEAMSRKLGQSESQGPPRAFAKVNSISPGSPASIAGLQVDDEIVEFGSVNTQNFQSLHNIGSVVGHSEGKPLNVTVIRRGEKHQLRLVPTRWAGKGLLGCNIIPLQR [Q181G]
